Measured values reported in patent US20230310702A1, “SELF-ASSEMBLING PEPTIDES, PREPARATION METHODS, SELF-ASSEMBLING PEPTIDE FORMULATIONS AND USE” (Success Bio-Tech Co., Ltd., priority 2020, published 2023).
“Also recorded” adds a separate entry of the source.

What was measured:
[1] = Viscosity testing of peptide solution (rheometer); assay type: physicochemical; details: shear rate 10 1/s
Method: A peptide solution was prepared, a 50 mm plate was chosen for the rheometer, a 1 mm gap was set, and 2 ml of the peptide solution was taken, and placed in the gap under the plate. The shear rate was set as 10 1/s. Average values were recorded.

[2] = Fluidity / viscosity of peptide solutions on dissolution (observation); assay type: physicochemical; details: for viscosity during dissolution: with increasing concentration
Method: (§1) Peptide solutions with different concentrations were prepared, and an appropriate amount of 10×PBS was added such that the final PBS concentration of the solution was 1×, after the solution was in contact with PBS to be triggered to be gel, the gel was taken out slowly with a spoon and placed onto a rheometer plate. A 40 mm plate was placed leaving the gap of about 450 µm, and kept at 37° C. for 5 minutes under a pressure of 1 pa, and frequency scanning was at 0.1 hz-10 hz. […] The highest concentration of the solution was set with the reference to the highest concentration at which a gel will not form immediately when the peptide was fully dissolved, according to which peptide solutions with a serial of diluted concentrations were prepared to perform storage modulus detections. For peptides represented by ① and ② in which the head and the tail are Pro, the storage modulus were able to reach 1000pa or higher after the PBS triggered the gelation, whereas before gelation, the solution can also maintain good fluidity.

[3] = Rheological property detection (storage modulus of triggered gel); assay type: physicochemical; details: concentration of 2.5%; after contact with a metallic ion or change pH value
Method: as §1

rabbit back skin wound = assay: Rabbit hemostasis experiment on the back; assay type: in vivo, New Zealand rabbits
Method: Hemostatic procedures: a peptide aqueous solution ① with a concentration of 3% was prepared for rabbit hemostasis on the back. After injection of anesthesia via ear veins in New Zealand rabbits, a skin incision of about 1.5 cm was made on the back, and an incision depth was made until a blood vessel ruptured, and blood flowed out. After the blood flowed out was wiped off with a gauze, the peptide aqueous solution was sprayed onto a wound site immediately, and timing was conducted. In the hemostatic process, oozed blood was wiped constantly with a gauze, until no blood flowed out, and the timing was stopped, and after 1 minute, excess gel was removed, and the wound was observed whether the blood further oozed out.

[4] = tested on: colonic mucosa (submucosal layer); assay: Colonic submucosal injection of rabbits; assay type: in vivo, New Zealand rabbit; details: 0.5 ml injected, 25G needle, observed 30 min; colon
Method: A New Zealand rabbit was fastened for 24 hours, injection of anesthesia was conducted via the ear vein, the abdomen was then opened, afterwards an open cutting was conducted along a midline of a colon to expose the colonic mucosa, 0.5 ml of normal saline was injected into the submucosal layer using a 25G needle. After observing for 30 min, the rabbit was sacrifice, a tissue was then taken out and fixed in formalin for 2 days, embedded by paraffin, sectioned, and finally stained with hematoxylin and eosin (FIG. 9B). 0.5 ml of a 10 mg/ml sodium hyaluronate solution (FIG. 9C) and 0.5 ml of a 3% peptide aqueous solution ① (FIG. 9D) were injected by the same method. An untreated normal tissue was used as a control (FIG. 9A).

[5] = tested on: stomach mucosa (posterior submucosal layer); assay: Rabbit stomach submucosal injection; assay type: in vivo, New Zealand rabbit; details: 0.5 ml injected, 25G needle, observed 30 min
Method: After a New Zealand rabbit was fastened for 24 hours, injection anesthesia was conducted from the ear vein, the abdomen was then opened, afterwards a stoma was made in the anterior wall of the stomach to expose a stomach mucosa, and 0.5 ml of normal saline was injected into a posterior submucosal layer using a 25G needle. After being observed for 30 min, the rabbit was sacrificed, a tissue was then taken out and fixed in formalin for 2 days, embedded by paraffin, sectioned, and finally stained with hematoxylin and eosin (FIG. 8A). 0.5 ml of a 10 mg/ml sodium hyaluronate solution (FIG. 8B) and 0.5 ml of a 3% peptides ① water solution (FIG. 8C) were injected by the same method.

liver wound = assay: Rabbit liver hemostasis experiment; assay type: in vivo
Method: Hemostatic process: a peptide aqueous solution ① with a concentration of 3% was prepared, abdomen was opened after anesthesia of the rabbit, liver was exposed, and after the hepatic vessel was lacerated, the blood flowed out. After the blood flowed out was wiped off with a gauze, the peptide aqueous solution was sprayed onto the wound site immediately, and timing was conducted.

[6] = 3% peptide aqueous solution sprayed onto liver wound

Substance	Viscosity ([1]; concentration 1%)	Viscosity ([1]; concentration 2%)	viscosity during dissolution [2]	Viscosity ([1]; concentration 3%)	Viscosity ([1]; concentration 4%)	fluidity of solution ([2]; before gelation)	other results
AC-Arg-Ala-Asp-Ala-Arg-Ala-Asp-Ala-Arg-Ala-Asp-Ala-Arg-Ala-Asp-Ala- amide [compound ⑤]	955.17 mPa·s	1817.96 mPa·s	increased with the increase of the concentrations				Viscosity ([1]; concentration 1%, listed as AC-(RADA)4-amide): high viscosity; also recorded: high viscosities; Viscosity ([1]; concentration 2.5%): 2514.57 mPa·s; fluidity of solution ([2]; concentration of 2.5%): almost lost fluidity; storage modulus [3]: less than 700 pa
AC-Arg-Val-Asp-Val-Arg-Val-Asp-Val-amide (Ac-RVDVRVDV-NH2) [comparison peptide without Pro in the viscosity test]	658.25 mPa·s	1546.21 mPa·s					Viscosity ([1]; concentration 1%, listed as AC-RVDVRVDV-amide): high viscosities
AC-Pro-Arg-Val-Asp-Val-Arg-Pro-Asp-Val-Arg-Val-Asp-Pro-amide (Ac-PRVDVRPDVRVDP-NH2) [compound ④]			increased with the increase of the concentrations				
AC-Pro-Arg-Val-Asp-Val-Arg-Val-Asp-Pro-amide (Ac-PRVDVRVDP-NH2) [compound ①]				Under the detection limit	No viscosity numerical value was detected; also recorded: Under the detection limit	good fluidity	time until no blood flowed out (rabbit back skin wound; 3% peptide aqueous solution sprayed onto back skin incision): about 20 s; gel formation on the wound (rabbit back skin wound; 3% peptide aqueous solution sprayed onto back skin wound): formed immediately; bleeding after hydrogel covering the surface was removed (rabbit back skin wound; 3% peptide aqueous solution, back skin wound): no blood oozed out; submucosal filling (hematoxylin and eosin staining) [4]: filled with the peptide gel; submucosal cushion layer (hematoxylin and eosin staining) [5]: fine and tight, and not loose; gel formation on contact with blood (liver wound; [6]): formed immediately; time until bleeding completely stopped (liver wound; [6]): about 15 s; hemostasis after excess hydrogel was removed (liver wound; 3% peptide aqueous solution, liver wound): hemostasis still obtained
AC-Pro-Arg-Val-Asp-Val-Arg-Val-Asp-Val-amide (Ac-PRVDVRVDV-NH2) [compound ③]			increased with the increase of the concentrations				
AC-Pro-Lys-Val-Glu-Val-Lys-Val-Glu-Pro-amide (Ac-PKVEVKVEP-NH2) [compound ②]				Under the detection limit	No viscosity numerical value was detected; also recorded: Under the detection limit	good fluidity	
